Experimental data from patent publication US20250262210A1 (TRUSTEES OF COLUMBIA UNIVERSITY IN THE CITY OF NEW YORK, published 2025).

What was measured:
Assay in all cases: IP/MS, LZTR1 wild type-FLAG, U87
BUB1 = BUB1 (human, UniProt O43683 1-1085, limits assumed)
Summary of the method: (§1)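 Read-out: spectral counts from LC-MS/MS (Orbitrap Fusion) after MaxQuant identification. Variable modifications were Met oxidation, protein N-terminal acetylation and N/Q deamidation.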

URB1 = URB1 (human, UniProt O60287 1-2271)
Chain of URB1 (O60287 whole entry): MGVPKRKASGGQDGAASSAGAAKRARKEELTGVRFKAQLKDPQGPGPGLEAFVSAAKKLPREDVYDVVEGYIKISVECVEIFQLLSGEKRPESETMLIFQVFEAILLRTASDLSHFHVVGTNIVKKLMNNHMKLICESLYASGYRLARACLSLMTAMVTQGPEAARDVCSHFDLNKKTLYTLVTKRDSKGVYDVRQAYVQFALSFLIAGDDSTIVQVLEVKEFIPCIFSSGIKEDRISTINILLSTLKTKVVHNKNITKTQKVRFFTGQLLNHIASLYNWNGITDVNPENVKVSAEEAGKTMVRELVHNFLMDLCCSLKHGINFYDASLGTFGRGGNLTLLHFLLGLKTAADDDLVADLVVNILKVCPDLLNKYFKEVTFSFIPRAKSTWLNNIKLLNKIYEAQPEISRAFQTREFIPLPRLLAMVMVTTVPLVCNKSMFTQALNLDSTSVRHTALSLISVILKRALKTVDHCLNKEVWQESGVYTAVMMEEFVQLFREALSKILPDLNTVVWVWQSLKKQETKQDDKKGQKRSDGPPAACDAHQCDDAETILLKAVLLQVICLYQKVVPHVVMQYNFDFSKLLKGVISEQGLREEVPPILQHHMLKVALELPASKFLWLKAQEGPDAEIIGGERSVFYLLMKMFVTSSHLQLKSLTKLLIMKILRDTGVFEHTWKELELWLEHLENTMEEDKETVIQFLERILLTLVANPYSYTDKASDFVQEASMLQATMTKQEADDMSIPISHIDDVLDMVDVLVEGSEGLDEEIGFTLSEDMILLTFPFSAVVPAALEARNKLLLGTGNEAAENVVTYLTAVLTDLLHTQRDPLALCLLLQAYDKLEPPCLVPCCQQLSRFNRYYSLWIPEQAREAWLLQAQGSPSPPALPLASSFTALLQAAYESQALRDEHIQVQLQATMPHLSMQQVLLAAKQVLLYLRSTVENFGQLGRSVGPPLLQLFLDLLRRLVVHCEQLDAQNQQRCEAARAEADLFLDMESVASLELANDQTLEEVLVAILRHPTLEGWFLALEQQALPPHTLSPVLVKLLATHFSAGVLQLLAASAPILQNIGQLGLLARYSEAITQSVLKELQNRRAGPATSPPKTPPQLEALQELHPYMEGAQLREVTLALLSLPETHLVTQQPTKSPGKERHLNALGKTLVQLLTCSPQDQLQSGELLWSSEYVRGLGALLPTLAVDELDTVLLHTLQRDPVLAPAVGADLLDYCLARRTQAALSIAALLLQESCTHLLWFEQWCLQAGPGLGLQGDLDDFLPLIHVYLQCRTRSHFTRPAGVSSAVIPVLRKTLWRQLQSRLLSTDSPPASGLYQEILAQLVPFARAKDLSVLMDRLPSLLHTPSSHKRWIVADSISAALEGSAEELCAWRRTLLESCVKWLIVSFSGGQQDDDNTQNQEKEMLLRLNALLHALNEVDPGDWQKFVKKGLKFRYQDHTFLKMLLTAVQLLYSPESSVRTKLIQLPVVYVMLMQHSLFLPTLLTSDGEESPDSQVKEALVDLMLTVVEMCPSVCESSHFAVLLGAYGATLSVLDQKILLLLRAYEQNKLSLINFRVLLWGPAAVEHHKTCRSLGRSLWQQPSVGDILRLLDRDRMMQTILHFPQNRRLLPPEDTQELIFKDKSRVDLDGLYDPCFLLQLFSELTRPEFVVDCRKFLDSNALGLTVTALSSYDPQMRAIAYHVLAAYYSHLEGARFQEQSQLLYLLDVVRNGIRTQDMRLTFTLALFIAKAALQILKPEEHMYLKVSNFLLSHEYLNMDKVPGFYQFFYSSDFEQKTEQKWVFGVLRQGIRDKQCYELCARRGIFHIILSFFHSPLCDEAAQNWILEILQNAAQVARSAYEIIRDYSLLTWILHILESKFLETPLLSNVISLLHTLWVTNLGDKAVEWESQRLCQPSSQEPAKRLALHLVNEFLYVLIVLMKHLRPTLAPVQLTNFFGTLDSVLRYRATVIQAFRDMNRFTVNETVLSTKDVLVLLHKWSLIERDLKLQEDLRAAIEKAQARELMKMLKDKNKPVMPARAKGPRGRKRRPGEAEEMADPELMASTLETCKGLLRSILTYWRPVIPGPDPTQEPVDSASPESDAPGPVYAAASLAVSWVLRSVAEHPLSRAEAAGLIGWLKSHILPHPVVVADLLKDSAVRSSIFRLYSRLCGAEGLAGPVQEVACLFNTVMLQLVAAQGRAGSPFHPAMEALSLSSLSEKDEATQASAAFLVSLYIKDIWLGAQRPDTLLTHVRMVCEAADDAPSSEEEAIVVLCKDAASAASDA
Summary of the method: as §1

WDR6 = molecular target: T1, WDR6 (human, UniProt Q9NNW5 1-1121)
T1 sequence (looked up): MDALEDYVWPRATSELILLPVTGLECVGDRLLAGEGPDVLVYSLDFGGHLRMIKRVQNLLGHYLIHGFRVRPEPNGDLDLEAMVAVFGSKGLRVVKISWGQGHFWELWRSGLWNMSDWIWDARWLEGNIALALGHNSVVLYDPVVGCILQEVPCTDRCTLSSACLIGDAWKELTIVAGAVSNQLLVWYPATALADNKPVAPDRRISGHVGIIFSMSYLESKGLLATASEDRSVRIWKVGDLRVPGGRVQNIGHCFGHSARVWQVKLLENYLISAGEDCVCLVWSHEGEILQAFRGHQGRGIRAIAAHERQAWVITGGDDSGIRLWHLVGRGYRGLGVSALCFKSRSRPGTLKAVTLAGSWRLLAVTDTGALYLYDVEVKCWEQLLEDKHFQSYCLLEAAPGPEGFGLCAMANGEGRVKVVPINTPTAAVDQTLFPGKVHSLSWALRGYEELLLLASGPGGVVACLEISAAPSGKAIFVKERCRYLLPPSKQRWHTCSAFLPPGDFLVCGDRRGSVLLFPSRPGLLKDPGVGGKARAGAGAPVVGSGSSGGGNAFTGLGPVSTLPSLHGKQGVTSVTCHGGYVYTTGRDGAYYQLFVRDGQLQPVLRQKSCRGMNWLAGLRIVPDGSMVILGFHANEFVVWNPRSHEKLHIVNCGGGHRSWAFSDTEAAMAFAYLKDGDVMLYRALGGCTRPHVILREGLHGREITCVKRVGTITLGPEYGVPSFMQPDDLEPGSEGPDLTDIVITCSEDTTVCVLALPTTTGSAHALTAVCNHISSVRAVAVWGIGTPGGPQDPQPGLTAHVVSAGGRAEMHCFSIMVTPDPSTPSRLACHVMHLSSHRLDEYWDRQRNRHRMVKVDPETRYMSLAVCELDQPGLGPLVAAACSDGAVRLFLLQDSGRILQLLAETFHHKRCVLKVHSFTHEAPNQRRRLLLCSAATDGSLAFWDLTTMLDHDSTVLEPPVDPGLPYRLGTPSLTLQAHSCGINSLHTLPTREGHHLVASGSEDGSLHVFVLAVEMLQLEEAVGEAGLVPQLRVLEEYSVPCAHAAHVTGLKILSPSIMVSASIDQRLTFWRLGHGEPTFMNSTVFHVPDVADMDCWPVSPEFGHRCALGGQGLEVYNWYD
Summary of the method: as §1

CTDP1 = molecular target: T2, CTDP1 (human, UniProt Q9Y5B0 1-961, limits assumed)
T2 sequence (looked up): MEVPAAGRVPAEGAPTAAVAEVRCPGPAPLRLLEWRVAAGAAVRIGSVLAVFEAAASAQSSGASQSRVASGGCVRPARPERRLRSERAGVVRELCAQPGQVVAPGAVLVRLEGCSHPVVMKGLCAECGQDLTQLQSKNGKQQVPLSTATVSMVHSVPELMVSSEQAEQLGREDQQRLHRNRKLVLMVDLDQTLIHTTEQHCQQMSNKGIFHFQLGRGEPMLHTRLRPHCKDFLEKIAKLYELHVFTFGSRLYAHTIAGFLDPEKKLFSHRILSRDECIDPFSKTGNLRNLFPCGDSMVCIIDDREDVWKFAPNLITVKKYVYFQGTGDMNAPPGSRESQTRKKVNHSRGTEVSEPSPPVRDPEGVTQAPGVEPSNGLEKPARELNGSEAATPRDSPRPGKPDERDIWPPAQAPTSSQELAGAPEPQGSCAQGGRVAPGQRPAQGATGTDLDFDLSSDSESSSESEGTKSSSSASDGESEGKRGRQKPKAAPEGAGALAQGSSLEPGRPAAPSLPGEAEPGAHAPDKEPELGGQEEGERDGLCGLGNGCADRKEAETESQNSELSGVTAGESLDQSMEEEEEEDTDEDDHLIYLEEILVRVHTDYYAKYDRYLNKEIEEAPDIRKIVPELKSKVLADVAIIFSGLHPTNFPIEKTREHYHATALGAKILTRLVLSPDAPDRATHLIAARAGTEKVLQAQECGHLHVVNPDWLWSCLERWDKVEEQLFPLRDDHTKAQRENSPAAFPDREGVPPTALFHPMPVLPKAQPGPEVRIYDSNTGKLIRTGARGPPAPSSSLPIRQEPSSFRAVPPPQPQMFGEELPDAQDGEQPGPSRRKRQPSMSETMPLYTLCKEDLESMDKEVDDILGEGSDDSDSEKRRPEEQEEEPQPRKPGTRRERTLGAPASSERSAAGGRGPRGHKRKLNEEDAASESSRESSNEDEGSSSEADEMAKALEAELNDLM
Summary of the method: as §1

IFT172 = IFT172 (human, UniProt Q9UG01 1-1749, limits assumed)
Chain of IFT172 (Q9UG01 whole entry): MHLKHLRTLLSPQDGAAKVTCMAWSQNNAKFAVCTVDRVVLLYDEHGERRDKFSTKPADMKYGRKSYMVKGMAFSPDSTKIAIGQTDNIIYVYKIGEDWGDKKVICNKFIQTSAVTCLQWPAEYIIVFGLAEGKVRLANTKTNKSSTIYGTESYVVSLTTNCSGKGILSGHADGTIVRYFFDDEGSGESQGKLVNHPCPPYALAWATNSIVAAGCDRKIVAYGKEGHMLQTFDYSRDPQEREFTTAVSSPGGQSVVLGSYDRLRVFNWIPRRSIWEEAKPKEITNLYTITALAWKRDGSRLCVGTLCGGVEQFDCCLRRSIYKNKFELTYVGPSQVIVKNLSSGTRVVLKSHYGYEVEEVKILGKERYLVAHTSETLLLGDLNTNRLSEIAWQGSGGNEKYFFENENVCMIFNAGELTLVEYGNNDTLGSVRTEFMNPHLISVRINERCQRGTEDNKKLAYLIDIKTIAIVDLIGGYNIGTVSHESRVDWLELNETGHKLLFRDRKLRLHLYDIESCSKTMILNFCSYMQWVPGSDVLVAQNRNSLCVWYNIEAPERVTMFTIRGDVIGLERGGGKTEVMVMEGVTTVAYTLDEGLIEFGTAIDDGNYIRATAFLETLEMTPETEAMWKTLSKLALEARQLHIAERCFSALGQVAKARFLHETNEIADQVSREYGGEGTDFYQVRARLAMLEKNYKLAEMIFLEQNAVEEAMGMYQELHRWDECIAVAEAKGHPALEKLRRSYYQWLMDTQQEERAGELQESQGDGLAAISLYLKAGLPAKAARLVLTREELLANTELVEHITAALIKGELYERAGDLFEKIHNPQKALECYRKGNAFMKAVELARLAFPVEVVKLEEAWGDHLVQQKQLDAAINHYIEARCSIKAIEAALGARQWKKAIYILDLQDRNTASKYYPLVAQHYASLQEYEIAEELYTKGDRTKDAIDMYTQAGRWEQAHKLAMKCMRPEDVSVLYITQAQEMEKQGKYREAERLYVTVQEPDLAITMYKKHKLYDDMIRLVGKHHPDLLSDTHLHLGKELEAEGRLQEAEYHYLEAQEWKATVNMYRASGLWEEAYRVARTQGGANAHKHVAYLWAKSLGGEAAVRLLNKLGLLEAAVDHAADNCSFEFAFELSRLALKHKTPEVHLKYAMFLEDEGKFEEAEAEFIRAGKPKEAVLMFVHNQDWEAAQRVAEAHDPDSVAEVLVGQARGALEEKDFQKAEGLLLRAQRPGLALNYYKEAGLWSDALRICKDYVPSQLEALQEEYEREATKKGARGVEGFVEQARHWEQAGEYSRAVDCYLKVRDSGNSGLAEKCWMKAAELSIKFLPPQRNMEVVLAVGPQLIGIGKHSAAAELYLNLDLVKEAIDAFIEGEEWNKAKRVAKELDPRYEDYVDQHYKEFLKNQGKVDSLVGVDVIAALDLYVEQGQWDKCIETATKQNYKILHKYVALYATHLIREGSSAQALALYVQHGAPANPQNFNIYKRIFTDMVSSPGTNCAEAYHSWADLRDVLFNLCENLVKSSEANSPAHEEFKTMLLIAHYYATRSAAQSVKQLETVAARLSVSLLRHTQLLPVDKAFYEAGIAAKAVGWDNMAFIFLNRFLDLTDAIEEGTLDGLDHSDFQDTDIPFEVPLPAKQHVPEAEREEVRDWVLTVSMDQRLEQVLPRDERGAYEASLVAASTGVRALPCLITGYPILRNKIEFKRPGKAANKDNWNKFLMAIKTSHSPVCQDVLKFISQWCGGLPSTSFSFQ
Summary of the method: as §1

Measured: binding result

Chain of BUB1 (O43683 whole entry, the tested form may be a part): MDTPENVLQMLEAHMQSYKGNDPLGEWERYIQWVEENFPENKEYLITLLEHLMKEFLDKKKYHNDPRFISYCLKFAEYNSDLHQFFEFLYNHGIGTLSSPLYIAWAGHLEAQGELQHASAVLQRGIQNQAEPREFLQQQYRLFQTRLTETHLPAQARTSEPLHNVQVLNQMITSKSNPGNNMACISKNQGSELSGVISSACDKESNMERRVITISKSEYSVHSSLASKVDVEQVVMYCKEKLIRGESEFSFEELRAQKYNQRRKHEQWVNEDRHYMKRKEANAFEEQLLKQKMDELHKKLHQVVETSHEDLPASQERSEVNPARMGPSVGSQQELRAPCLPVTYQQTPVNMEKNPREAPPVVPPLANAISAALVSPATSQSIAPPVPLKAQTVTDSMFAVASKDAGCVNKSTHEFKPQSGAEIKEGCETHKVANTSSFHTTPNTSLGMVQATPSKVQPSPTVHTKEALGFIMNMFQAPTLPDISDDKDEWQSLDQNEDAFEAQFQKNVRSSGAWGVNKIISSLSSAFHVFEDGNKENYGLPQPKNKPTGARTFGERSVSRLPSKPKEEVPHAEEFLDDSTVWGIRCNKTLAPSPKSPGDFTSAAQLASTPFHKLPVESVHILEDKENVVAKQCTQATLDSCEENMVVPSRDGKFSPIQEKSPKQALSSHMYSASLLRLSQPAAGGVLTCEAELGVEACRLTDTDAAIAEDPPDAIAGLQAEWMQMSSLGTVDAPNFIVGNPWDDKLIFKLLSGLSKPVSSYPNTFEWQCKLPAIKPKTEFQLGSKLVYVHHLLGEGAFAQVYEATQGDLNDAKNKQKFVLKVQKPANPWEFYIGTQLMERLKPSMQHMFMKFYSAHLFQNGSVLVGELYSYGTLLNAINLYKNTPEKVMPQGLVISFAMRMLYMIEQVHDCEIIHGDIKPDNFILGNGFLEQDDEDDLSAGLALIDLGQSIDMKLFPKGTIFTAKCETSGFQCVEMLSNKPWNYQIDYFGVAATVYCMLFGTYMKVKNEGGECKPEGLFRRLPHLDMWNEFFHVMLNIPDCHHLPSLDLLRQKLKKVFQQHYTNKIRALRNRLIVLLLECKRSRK

B1: LZTR1-FLAG (other, human, UniProt Q8N653 1-840, looked up)
chain: MAGPGSTGGQIGAAALAGGARSKVAPSVDFDHSCSDSVEYLTLNFGPFETVHRWRRLPPCDEFVGARRSKHTVVAYKDAIYVFGGDNGKTMLNDLLRFDVKDCSWCRAFTTGTPPAPRYHHSAVVYGSSMFVFGGYTGDIYSNSNLKNKNDLFEYKFATGQWTEWKIEGRLPVARSAHGATVYSDKLWIFAGYDGNARLNDMWTIGLQDRELTCWEEVAQSGEIPPSCCNFPVAVCRDKMFVFSGQSGAKITNNLFQFEFKDKTWTRIPTEHLLRGSPPPPQRRYGHTMVAFDRHLYVFGGAADNTLPNELHCYDVDFQTWEVVQPSSDSEVGGAEVPERACASEEVPTLTYEERVGFKKSRDVFGLDFGTTSAKQPTQPASELPSGRLFHAAAVISDAMYIFGGTVDNNIRSGEMYRFQFSCYPKCTLHEDYGRLWESRQFCDVEFVLGEKEECVQGHVAIVTARSRWLRRKITQARERLAQKLEQEAAPVPREAPGVAAGGARPPLLHVAIREAEARPFEVLMQFLYTDKIKYPRKGHVEDVLLIMDVYKLALSFQLCRLEQLCRQYIEASVDLQNVLVVCESAARLQLSQLKEHCLNFVVKESHFNQVIMMKEFERLSSPLIVEIVRRKQQPPPRTPLDQPVDIGTSLIQDMKAYLEGAGAEFCDITLLLDGHPRPAHKAILAARSSYFEAMFRSFMPEDGQVNISIGEMVPSRQAFESMLRYIYYGEVNMPPEDSLYLFAAPYYYGFYNNRLQAYCKQNLEMNVTVQNVLQILEAADKTQALDMKRHCLHIIVHQFTKVSKLPTLRSLSQQLLLDIIDSLASHISDKQCAELGADI
notes: Expressed in HEK 293T, HeLa or U87 cells; used as cell lysate; also called LZTR1 wild type-FLAG; LZTR1 WT; not shown: FLAG tag at the C-terminus
binds: all assays above
